In one test the target is 1. Kind of test: yeast display binding; apparent Kd.
For another test, the target named is 2. The test is described as follows: yeast display binding; apparent Kd.
Another test deals with 5. Kind of test: yeast display binding; apparent Kd.
The target of the next test is 3. Kind of test: yeast display binding; apparent Kd.
Test [1] has as its target T1, recombinant human cardiotrophin-like cytokine factor 1 (CLCF1) (human, UniProt Q9UBD9 28-225).
T1 chain: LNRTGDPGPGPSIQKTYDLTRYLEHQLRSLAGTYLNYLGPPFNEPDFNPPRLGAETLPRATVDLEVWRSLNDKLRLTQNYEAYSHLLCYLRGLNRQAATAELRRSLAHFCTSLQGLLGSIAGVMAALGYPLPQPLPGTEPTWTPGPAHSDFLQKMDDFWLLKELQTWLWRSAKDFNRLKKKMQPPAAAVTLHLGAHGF
The test is described as follows: ELISA. On the technique in general: In an ELISA, binding on a coated surface is turned into a signal by an enzyme label.

In test [2] the target is T1, recombinant human cardiotrophin-like ….
For test [3] the target is unchanged.

Read-outs that look alike come from different tables or passages of the source.

We go through four molecules from patent publication US20190359683A1 (published 2019).

B1: CLCF1 (ligand)
chain: LNRTGDPGPGPSIQKTYDLTRYLEHQLRSLAGTYLNYLGPPFNEPDFNPPRLGAETLPRATVDLEVWRSLNDKLRLTQNYEAYSHLLCYLRGLNRQAATAELRRSLAHFCTSLQGLLGSIAGVMAALGYPLPQPLPGTEPTWTPGPAHSDFLQKMDDFWLLKELQTWLWRSAKDFNRLKKKMQPPAAAVTLHLGAHGF
B1: the Kd with 1 came to 4.1 µM; with 2 it was 890 nM; with 5, 740 nM; with 3, 49 nM.

B2: eCNTFR-Fc (soluble engineered CNTFR fused to mouse IgG2a Fc) (Fc fusion)
chain: QRHSPQEAPHVQYERLGSDVTLPCGTANWDAAVTWRVNGTDLAPDLLNGSQLVLHGLELGHSGLYACFHRDSWHLRHQVLLHVGLPPQEPVLSCRSNTYPKGFYCSWHLPTPTYIPNTFNVTVLHGSKIMVCEKDPALKNRCHIRYMHLFSPIKHNVSISVSNALGHNATAITFDEFTIVKPDPPENVVARPVPSNPRRLEVTWQTPSTWPDPEFFPLKFFLRYRPLILDQWQHVELSDGTAHTIAAAYAGKEYIIQVAAKDNEFGTWSDWSVAAHATPWTEEPRHLTTEAQAAETTTSTTSSLAPPPTTKICDPGELGSRRLEPRGPTIKPCPPCKCPAPNLLGGPSVFIFPPKIKDVLMISLSPIVTCVVVDVSEDDPDVQISWFVNNVEVHTAQTQTHREDYNSTLRVVSALPIQHQDWMSGKEFKCKVNNKDLPAPIERTISKPKGSVRAPQVYVLPPPEEEMTKKQVTLTCMVTDFMPEDIYVEWTNNGKTELNYKNTEPVLDSDGSYFMYSKLRVEKKNWVERNSYSCSVVHEGLHNHHTTKSFSRTPGK
In the case of B2, the Kd in test [1] was 0.063 nM.

B3: yeast-displayed CNTFR variant 4 (R110Q, T174P, S237F, I287F) (protein)
chain: VYAQRHSPQEAPHVQYERLGSDVTLPCGTANWDAAVTWRVNGTDLAPDLLNGSQLVLHGLELGHSGLYACFHRDSWHLRHQVLLHVGLPPQEPVLSCRSNTYPKGFYCSWHLPTPTYIPNTFNVTVLHGSKIMVCEKDPALKNRCHIRYMHLFSPIKYKVSISVSNALGHNATAITFDEFTIVKPDPPENVVARPVPSNPRRLEVTWQTPSTWPDPEFFPLKFFLRYRPLILDQWQHVELSDGTAHTITDAYAGKEYIIQVAAKDNEFGTWSDWSVAAHATPWTEEPRHLTTEAQAAETTTSTTSSLAPPPTTKICDPGELGS
In the case of B3, the Kd amounted to 19 nM in test [2] and 0.019 nM in test [3].

B4: eCNTFR-HIS (soluble engineered CNTFR with His-tag) (receptor)
chain: QRHSPQEAPHVQYERLGSDVTLPCGTANWDAAVTWRVNGTDLAPDLLNGSQLVLHGLELGHSGLYACFHRDSWHLRHQVLLHVGLPPQEPVLSCRSNTYPKGFYCSWHLPTPTYIPNTFNVTVLHGSKIMVCEKDPALKNRCHIRYMHLFSPIKHNVSISVSNALGHNATAITFDEFTIVKPDPPENVVARPVPSNPRRLEVTWQTPSTWPDPEFFPLKFFLRYRPLILDQWQHVELSDGTAHTIAAAYAGKEYIIQVAAKDNEFGTWSDWSVAAHATPWTEEPRHLTTEAQAAETTTSTTSSLAPPPTTKICDPGELGS
Take B4: the Kd in test [1] stood at 0.075 nM.
